Results as given in the supplement of paper PMC12764529.
± gives the half width of the 95% confidence interval.

Key:
[1] = folding stability dG unfold from chymotrypsin proteolysis; higher = more stable
Procedure, shortened: (§1)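 Unfolding free energy was derived, per protease or combined, against a sequence-predicted unfolded-state K50 and a shared folded-state K50, starting from K50 inferred by Bayesian fitting of sequencing counts. Digestion with trypsin and chymotrypsin was carried out on designed mini-proteins under 80 residues without cysteine in a PA-tagged cDNA display construct. Only designs with AlphaFold2 dimer inter-PAE above 15 were kept.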

[2] = folding stability dG unfold (combined trypsin and chymotrypsin); higher = more stable
Procedure, shortened: as §1

[3] = folding stability dG unfold from trypsin proteolysis; higher = more stable
Procedure, shortened: as §1

Sequence | folding stability dG unfold [1] [kcal/mol] | folding stability dG unfold [2] [kcal/mol] | folding stability dG unfold [3] [kcal/mol]
SAGGSAGGSAETFTLPGGYTITVEPTEGGVKVTITHPDGSKGEVELGPTEPLVVDPDGATILASAGGSAGGS [r12_281_TrMRF] | 1.66 ± 0.093 | 1.66 ± 0.1 | 1.49 ± 0.079
SAGGSAGGSAEVEIEFVSYDPSTGRLVRKRVKLKLLPDPKGGPVEVVEVEVDPGGPVPAGASAGGSAGGSAG [r3_397_TrMRF] | 2.08 ± 0.046 | 2.11 ± 0.12 | 1.91 ± 0.053
SAGGSAGGSAEVEIEVDKETKELYIKDSNGKVKKIKVKVVKVEVKKPVVTLPKEELSEEELKSAGGSAGGSA [r18_59_TrROS_Hall] | -0.357 ± 0.17 | 0.258 ± 0.33 | 0.818 ± 0.084
SAGGSAGGSAEVFIVKFSDPAKLKAFMEKLGLSYEKGDNPKITNPEEFLKNLPLVKNVVVTKKSAGGSAGGS [r12_571_JUSTAS] | 0.54 ± 0.14 | 0.423 ± 0.057 | 0.286 ± 0.12
SAGGSAGGSAEVPKPGEAKPVLVTSSFTIPLPNGGTLEITTVDLVDVATGTVTPRVEVRSLDSAGGSAGGSA [r18_123_TrMRF] | -0.991 ± 0.88 | < -1 | -0.786 ± 0.33
SAGGSAGGSAFTIHDLKLNKVEVHPDGTVTYHLEVTLPSGEKLKVVVLVDPRKPSLATFYFSSAGGSAGGSA [r18_97_TrMRF] | 3.31 ± 0.057 | 2.94 ± 0.13 | 2.31 ± 0.2
SAGGSAGGSAFVWNPDTGTFIQLDPNDGTIEVFEIENDNDGKLEPIGTVEVDPDDPDKGTITSAGGSAGGSA [r18_448_TrROS] | 1.23 ± 0.069 | 1.5 ± 0.1 | 1.75 ± 0.13
SAGGSAGGSAGAEIKIKKVEKKDSKLKLILPDGRIYEVKKDKKKSNSIKKIKIKKLPPLKSAGGSAGGSAGG [r17_173_JUSTAS] | -0.181 ± 0.59 | -0.0549 ± 0.47 | 0.113 ± 0.34
SAGGSAGGSAGAKVKVFKVRAEVKLTRTADGELVAEVTEVEIEEVEVEVRPPPPPPLPPASAGGSAGGSAGG [r11_381_TrROS_Hall] | 3.11 ± 0.14 | 2.92 ± 0.35 | 1.67 ± 0.24
SAGGSAGGSAGAPPGSTVTVTYTVTTTVTDRVPDGPGFTNPHTLTSTVTTTVNVGHPDLVSAGGSAGGSAGG [r11_734_TrMRF] | 0.00274 ± 0.17 | 0.585 ± 0.12 | 0.833 ± 0.058
SAGGSAGGSAGAPTVKLTFTVTRTETKTETLPDGTTKTETKTETRTVTLTLAPGETITVTSAGGSAGGSAGG [r11_174_TrROS_Hall] | 4.27 ± 0.077 | 3.98 ± 0.11 | 3.39 ± 0.084
SAGGSAGGSAGASLKEELGFAEVLSRSPTPDTEPLLLKHPEGGELVTVEVDAATAVEWLESAGGSAGGSAGG [r11_630_JUSTAS] | 0.424 ± 0.17 | 0.354 ± 0.24 | 0.343 ± 0.091
SAGGSAGGSAGASPTAPAVTVEVKTEEVPNNDLLKTTTTTYFPGTGTTVTTETILPPGLGSAGGSAGGSAGG [r11_746_JUSTAS] | -0.269 ± 0.086 | -0.00225 ± 0.12 | 0.187 ± 0.053
SAGGSAGGSAGATISPDGYKIVVTNADGEKVTLTFDSLEEAKAALEALLPPGARVFIEKVSAGGSAGGSAGG [r11_983_TrROS_Hall] | 2.009 ± 0.011 | 1.61 ± 0.031 | 0.529 ± 0.035
SAGGSAGGSAGDDGDKKPEVKVKVKIEPTIIPSPNGELMLMWTLEIEYPGNGEKREFTFMSAGGSAGGSAGG [r17_59_TrROS] | 1.92 ± 0.13 | 1.58 ± 0.17 | 1.33 ± 0.071
SAGGSAGGSAGDENEKPKPKMQMKMIQIKFPPEDLPELAEEFGIDSVHIMPNGSLFIMVYSAGGSAGGSAGG [r11_64_TrROS] | 1.48 ± 0.1 | 1.36 ± 0.18 | 1.07 ± 0.11
SAGGSAGGSAGDEWITIWFLFPSPEQAKDIADPLASNGLNIDVETHRMPDGNYWVNITIPSAGGSAGGSAGG [r11_677_TrROS] | 3.34 ± 0.089 | 2.9 ± 0.11 | 2.21 ± 0.092
SAGGSAGGSAGDGMIEVKVEFERLFFDENGNVTKKEKVDEIIKVPPVTIDTSTGKLTPLPSAGGSAGGSAGG [r17_413_JUSTAS] | 0.229 ± 0.021 | 0.284 ± 0.073 | 0.261 ± 0.051
SAGGSAGGSAGDLLKEALEEAKKAGIKTATITVEVDGKLYTLTVKLEPKPPPKEVKVEKKSAGGSAGGSAGG [r17_475_TrROS_Hall] | 0.814 ± 0.17 | 0.526 ± 0.38 | -0.977 ± 0.51
SAGGSAGGSAGDNYVMITHTIPFPPGEPLEIKIPPGAKIDDIDPERDPGNGTITVSIWFRSAGGSAGGSAGG [r11_701_TrROS] | 0.879 ± 0.17 | 0.73 ± 0.25 | 0.491 ± 0.24
SAGGSAGGSAGDPVLTVTLLDDNHPVTLTYHPGEKTVTVSVYPLKSGKVLGTVTVPASELSAGGSAGGSAGG [r11_231_TrMRF] | 0.37 ± 0.13 | -0.0506 ± 0.12 | -1.45 ± 0.71

Sequence | folding stability dG unfold [1] [kcal/mol] | folding stability dG unfold [2] [kcal/mol] | folding stability dG unfold [3] [kcal/mol]
SAGGSAGGSAGDWIKFEYTFKWNFFDPDGDLLMNMTVRVTIEIPIPPVPKPVKPSPNDDNSAGGSAGGSAGG [r17_325_TrROS] | 5.4 ± 0.15 | 5.34 ± 0.22 | 3.52 ± 0.13
SAGGSAGGSAGEEKETLTLVLPLEDMSPEEIAKLLEAAGYKVTVEEKDGLLVVKIERKPPSAGGSAGGSAGG [r11_707_TrROS_Hall] | 2.855 ± 0.017 | 2.77 ± 0.065 | 2.57 ± 0.08
SAGGSAGGSAGEFEIIIPPGVAEERPELLEEIRDRFKPLGLEVEVEYIPGEGYVRVKVKGSAGGSAGGSAGG [r11_357_TrMRF] | 1.64 ± 0.036 | 1.55 ± 0.11 | 1.36 ± 0.061
SAGGSAGGSAGEFELLSVEYFPPIGRVRVAYRRGDLVLVVDFFNPENPEIRPVSLSDELGSAGGSAGGSAGG [r17_145_TrMRF] | 2.48 ± 0.057 | 2.59 ± 0.18 | 2.64 ± 0.067
SAGGSAGGSAGEFEPVPVLTLPGLDDREVRVVLFKDPPLVLLEVEGAPYVLPAEELLRLASAGGSAGGSAGG [r11_370_TrMRF] | 1.26 ± 0.13 | 0.856 ± 0.12 | -0.19 ± 0.09
SAGGSAGGSAGEIENPSLLSQIVPRKVKVTTEIRKLPNGSYETVTTVTYGSTTTTTTSSGATSAGGSAGGSA [r18_335_JUSTAS] | -0.256 ± 0.15 | 0.0269 ± 0.096 | 0.163 ± 0.048
SAGGSAGGSAGEIVEVDGKLYIRVRTKDGEWKLIEMSADEIASLPAENVEEVEIVDPKDLSAGGSAGGSAGG [r11_779_TrROS_Hall] | 3.16 ± 0.075 | 3.08 ± 0.11 | 2.6 ± 0.1
SAGGSAGGSAGELSLEEIKKLAPDETAVVKLPPSPETIVITVSTNPNGTLKIEIKRYPPGSAGGSAGGSAGG [r11_13_JUSTAS] | 0.657 ± 0.03 | 0.674 ± 0.1 | 0.566 ± 0.037
SAGGSAGGSAGELTVTVTVLLEDGTAVKIEARFELDENGNLHLEVKVEVVKLPELSPEDLSAGGSAGGSAGG [r11_728_TrROS_Hall] | 2.25 ± 0.2 | 2.74 ± 0.32 | 3.4 ± 0.43
SAGGSAGGSAGEPEIEIEVEERDGELVLRARVRDRETGEEYEVVVRVRPDGPIEITEIRPSAGGSAGGSAGG [r17_113_TrROS_Hall] | 2.55 ± 0.13 | 2.72 ± 0.13 | 3.11 ± 0.13
SAGGSAGGSAGEPEYVRVRIRVRRRVRNKETGKWEEKEVELTLVFPSKEEALKALEELGLSAGGSAGGSAGG [r11_984_TrROS_Hall] | 4.049 ± 0.037 | 4.02 ± 0.051 | 3.99 ± 0.083
SAGGSAGGSAGEPKLILVEVEGYPDPESNLVYVEFPNGDIATFAVDSAAPDQPVLVLVNPSAGGSAGGSAGG [r11_621_TrMRF] | -0.0185 ± 0.065 | 0.28 ± 0.045 | 0.378 ± 0.044
SAGGSAGGSAGEPVEVTPLSTETVPDSDTTVTYYKVTYPGGKEAIRTVYSDGTETTTPLPSAGGSAGGSAGG [r11_637_JUSTAS] | 1.02 ± 0.1 | 0.969 ± 0.17 | 0.915 ± 0.12
SAGGSAGGSAGERLTADELRKLAEELGLPAEITVERKEDGTYTVTITVDGKTYKIEIKLDSAGGSAGGSAGG [r11_410_TrROS_Hall] | 3.44 ± 0.1 | 3.16 ± 0.15 | 2.38 ± 0.096
SAGGSAGGSAGETVTLTLTVTVTRTYYDAETGEEVEQETETRTLTLTMSKEELERLLKELSAGGSAGGSAGG [r17_283_TrROS_Hall] | 4.66 ± 0.11 | 4.44 ± 0.17 | 3.28 ± 0.13
SAGGSAGGSAGEVEFELTVKLTVTHPSGGKSEIEVPVKITLPVVDISKEILESNPEVVKKANSAGGSAGGSA [r18_114_TrMRF] | -0.964 ± 0.33 | -0.108 ± 0.3 | 0.486 ± 0.11
SAGGSAGGSAGEVEIEITKVTENEDGSETLEMTIRDKDTGKTYKLTFNKDNGILTLEEEPSAGGSAGGSAGG [r11_991_TrROS_Hall] | 3.05 ± 0.097 | 2.43 ± 0.2 | 1.93 ± 0.13
SAGGSAGGSAGEVTVPAVVPPDAVPEVVEAVERLGARAEVEWDPETGLYRVNITFDGEVGSAGGSAGGSAGG [r11_1043_TrMRF] | 0.901 ± 0.06 | 0.604 ± 0.07 | -0.00326 ± 0.067
SAGGSAGGSAGEVVLSPTDKTLTLTSFDPKTGVTYYTVFYPATGTTSTTSTGNLESLIAASAGGSAGGSAGG [r17_300_JUSTAS] | 0.531 ± 0.13 | 0.929 ± 0.084 | 1.25 ± 0.024
SAGGSAGGSAGFFRVDIDIMMSPEMLDLMKKNPGLPPGQEIPIMVVIKREPVPYDPNGKLSAGGSAGGSAGG [r17_194_TrROS] | 2.1 ± 0.043 | 1.8 ± 0.051 | 1.375 ± 0.013
